T1: irrelevant (Ig-V)-B7-H4 (Ig-C; D158-G236 including TM/CD D237-K282) chimeric membrane protein (Homo sapiens (Human), UniProt Q7Z7D3 158-282)
T1 construct: Transiently expressed on 293 cells; also called construct-88B; B7-H4 Ig-C domain; not shown: irrelevant Ig-V domain
T1 sequence: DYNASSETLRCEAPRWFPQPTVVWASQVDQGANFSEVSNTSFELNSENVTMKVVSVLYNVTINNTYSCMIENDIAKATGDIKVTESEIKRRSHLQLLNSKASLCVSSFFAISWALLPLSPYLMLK

T2: cynomolgus monkey B7-H4 (cynomolgus monkey, UniProt Q7Z7D3 29-282 (human entry))
T2 construct: Expressed on stably transfected 293 cells; also called cyno B7-H4
T2 chain: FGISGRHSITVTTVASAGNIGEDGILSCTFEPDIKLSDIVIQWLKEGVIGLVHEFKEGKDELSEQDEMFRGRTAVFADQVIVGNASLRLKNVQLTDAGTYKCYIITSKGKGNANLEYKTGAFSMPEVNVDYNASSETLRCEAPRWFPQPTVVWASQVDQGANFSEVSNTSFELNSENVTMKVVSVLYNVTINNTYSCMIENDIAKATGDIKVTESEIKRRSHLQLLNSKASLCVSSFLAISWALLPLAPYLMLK


Legend:
[1] = biological target: T1, irrelevant (Ig-V)-B7-H4 (Ig-C; …); assay: FACS of Dylight-488 or -650 labelled antibody on 293 cells transiently transfected with construct-88B
Description: To determine whether the B7-H4 antibodies bind to either the Ig-V or Ig-C domain of B7-H4, chimeric Ig domain molecules were engineered that contain either a B7-H4 (IgV; G28-F150 including spacer S151-V157)—irrelevant (Ig-C) (construct-88) or an irrelevant (Ig-V)-B7-H4 (Ig-C; D158-G236 including TM/CD D237-K282) (construct-88B) membrane protein using standard molecular cloning methods. N-terminal or cytoplasmic tags were attached to confirm that 293 cells transfected with these constructs express protein on the cell membrane (data not shown). Briefly, 293 cells were transiently transfected with constructs 88 & 88B using polyfect. After 48 hours, the cells were stained with 10 μg/ml of Dylight-488 or -650 labeled ch9B9, ch1D11, ch22C10 or ch32D6 for 30-40 minutes at 4° C., washed and analyzed on a BD FACS calibur.

cynomolgus monkey B7-H4 = biological target: T2, cynomolgus monkey B7-H4; assay: FACS titration on 293-cyno B7-H4 cells, geometric mean fluorescence
Protocol: The small-scale preps were initially screened by FACS and Scatchard Analyses to determine species-specificity and affinity (Kd) to recombinant and endogenous B7-H4. Initial EC₅₀ and species specificity were determined by incubating different concentrations (0-10 μg/ml) of the humanized variants with 293 cells overexpressing recombinant human-, cynomolgus-, or mouse-B7-H4, and the tumor cell line, MX-1, expressing endogenous human B7-H4, at 4° C. for 40 minutes followed by a wash and staining with a secondary goat-anti-human IgG antibody conjugated to Dylight-650 for 20 minutes at 4° C. The fluorescent signal was acquired with a BD FACS Calibur and EC₅₀ values were determined with the Graph Pad program Prism 4.

Row | Binder | binding result [1] | binding result (cynomolgus monkey B7-H4)
1 | ch32D6 (antibody, human IgG1, V domains shown, also called chimeric 32D6) VH: EVQLQQSGPDLVKPGASVKISCKASGYSFTGYYIHWMKQSHGKSLEWIGRVNPNNGDPIYNQKFRGKAILTVDQSSNTAYMELRSLTSEASAVYYCARVLFYYGSPFAYWGQGTLVTVSA VL: DIVMTQSPSSLIVTAGEKVTMSCRSSQSLFDSGSQRNYLTWFHQKPGRPPKLLIYWASTRESGVPDRFTGSGSGTDFTLTISSVQTEDLAVYFCQNDYSFPFTFGSGTKLEEK | no binding (tested: 10 ug/ml) | –
2 | ch9B9 (antibody, human IgG1, V domains shown, also called chimeric 9B9) VH: QVQLQQSGAELMKPGASVKMSCKATGYTFSSYWIEWVKQRPGHGLEWIGEILPGTSITTYNAKFKVKATFTADTSSNTAYMQLSSLTSEDSAVYFCARYYFGSSSFYFDYWGQGTSLTVSS VL: QAVVTQESALTTSPGDTVTLTCRSSTGAVTTSNYANWVQEKPDHLFTGLIGGTNNRVPGVPARFSGSLIGDKAALTITGAQTEDEAMYFCALWYNNHWVFGGGTKLE | no binding (tested: 10 ug/ml) | –
3 | hu1D11.v1.8 (antibody, V domains shown, also called h1D11.v1.8) VH: EVQLVQSGAEVKKPGASVKVSCKASGYTFTSYWIGWVRQAPGQGLEWIGDIYPGGGYTNYNEKFKGRATITRDTSTSTAYLELSSLRSEDTAVYYCARLDGSSYRGAMDSWGQGTLVTVSS VL: DIQMTQSPSSLSASVGDRVTITCKASQGFNKYVAWYQQKPGKAPKLLIYYTSTLQPGVPSRFSGSGSGRDYTLTISSLQPEDFATYYCLQYGNLLYAFGQGTKVEIKR | – | binds

Continued, values first:

Row | binding result [1] | binding result (cynomolgus monkey B7-H4) | Binder
4 | no binding (tested: 10 ug/ml) | – | ch22C10 (antibody, human IgG1, V domains shown, also called chimeric 22C10; ch2210) VH: QVQLQQPGAELVKPGTSVKLSCKASGYTFTNFWIHWVIQRPGQGLEWIGEIDPSDSYTNYNQKFKGKATLTVDKSSNTAYMQLSSLTSEDSAVYYCSREITTVDYWGQGTTLTVSS VL: QIVLTQSPTIMSASPGEKVTLTCSATSSISYMHWYQQKPGTSPKGWIYDTSKLAHGVPARFSGSGSGTSYSLTISSMEAEDAATYYCHQRRSYPFTFGSGTKLEIK
5 | no binding (tested: 10 ug/ml) | – | ch1D11 with light chain C43G (antibody, V domains shown, Dylight-488 or -650 labelled in the assay; also called slightly modified version of ch1D11) VH: QVQLQQSGAELVRPGTSVKMSCKASGYTFTSYWIGWAKQRPGHGFEWIGDIYPGGGYTNYNEKFKGKATLTADKSSSTAYMQFSSLTSEDSAIYYCARLDGSSYRGAMDSWGQGTSITVSS VL: DIQMTQSPSSLSASLGGKVTITCKASQGFNKYVAWYQHKPGQGPRLLIHYTSTLQPGIPARFSGSGSGRDYSFSISNLEPEDSATYFCLQYGNLLYAFGGGTKLEIKR
